Drawing on publication PMC6241251, this text covers stoichiometry N (CaMs per channel tetramer) for 1 substance.

The test deals with human SK4 (small-conductance Ca2+-activated K+ channel), full-length (human) (UniProt O15554). Kind of test: cryo-EM structure.
Sequence of UniProt O15554 (O15554 whole entry): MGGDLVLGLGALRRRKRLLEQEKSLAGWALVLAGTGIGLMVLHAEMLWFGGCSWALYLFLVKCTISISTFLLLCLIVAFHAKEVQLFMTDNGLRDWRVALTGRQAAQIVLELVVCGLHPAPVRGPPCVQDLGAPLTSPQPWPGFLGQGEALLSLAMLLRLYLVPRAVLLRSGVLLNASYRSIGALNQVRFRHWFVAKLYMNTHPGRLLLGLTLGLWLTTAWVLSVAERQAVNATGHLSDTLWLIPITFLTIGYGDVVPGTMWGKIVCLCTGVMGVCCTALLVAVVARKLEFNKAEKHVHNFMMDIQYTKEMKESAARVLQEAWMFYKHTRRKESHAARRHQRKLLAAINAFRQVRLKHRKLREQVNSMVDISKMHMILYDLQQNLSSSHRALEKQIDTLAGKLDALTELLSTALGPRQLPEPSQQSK

As for “calmodulin (from UniProt P0DP23 1-149) (natural protein; other documents disagree on this pair)”, the stoichiometry N (CaMs per channel tetramer) amounted to 4.
